In experiment [1] the target is Recombinant human his-tagged IGF 1R extracellular domain protein (human) (UniProt P08069). Put plainly: SPR, captured IgG, IGF-1R ECD-his analyte, dissociation pH 7.4. On the technique in general: Surface plasmon resonance follows binding to a sensor surface in real time, without labels.
Experiment [2] shares this target. As to the kind of experiment: SPR, captured IgG, IGF-1R ECD-his analyte, dissociation pH 6.

Where a chain is given by its changes, count along the chain named.

These results are taken from patent US20240343814A1.

B1: VRDN-02501 (antibody, V domains shown)
VH: EVQLVQSGGGLVKPGGSLRLSCAASHFTFSSFAMHWVRQAPGKGLEWISVIDTRGATYYADSVKGRFTISRDNAKNSLYLQMNSLRAEDTAVYYCARLGNFYYGMDVWGQGTTVTVSS
VL: EIVLTQSPGTLSVSPGERATLSCRASQSIGSSLHWYQQKPGQAPRLLIKYASQSLSGIPDRFSGSGSGTDFTLTISRLEPEDFAVYYCHQSSRLPHTFGQGTKVEIK
Turning to B1, in experiment [1], the dissociation constant Kd turned out to be 0.911 nM, the koff was determined as 0.00015 s⁻¹ and the kon worked out at 165000 M⁻¹ s⁻¹. Also, in experiment [2], the equilibrium dissociation constant (Kd) turned out to be 0.0259 nM, the off-rate constant (koff) was determined as 1e-06 s⁻¹ and the kon is 38600 M⁻¹ s⁻¹.

B2: VRDN-02502 (antibody, V domains shown)
VH: B1 VH with H26G, F27H
VL: B1 VL
Turning to B2, in experiment [1], the Kd was 0.0244 nM, the koff stood at 4.1e-06 s⁻¹ and the kon came out at 168000 M⁻¹ s⁻¹. Besides, in experiment [2], the Kd came out at 0.0375 nM, the koff came out at 1e-06 s⁻¹ and the kon was 26700 M⁻¹ s⁻¹.

B3: VRDN-02564 (antibody, V domains shown)
VH: B1 VH with H26G, D52H, M105H
VL: B1 VL
In the case of B3, in experiment [2], the dissociation constant (Kd) is 1.48 nM, the koff was 0.000507 s⁻¹ and the kon was determined as 344000 M⁻¹ s⁻¹.

B4: VRDN-02554 (antibody, V domains shown)
VH: B1 VH with H26G, D52H
VL: B1 VL with Y50H
Consider B4, for which, in experiment [2], the Kd was determined as 1.53 nM, the off-rate constant (koff) turned out to be 0.000152 s⁻¹ and the kon came out at 99500 M⁻¹ s⁻¹.

B5: VRDN-02525 (antibody, V domains shown)
VH: B1 VH with H26G, M105H
VL: B1 VL
For the molecule B5, in experiment [1], the Kd is 0.00758 nM, the koff was 1e-06 s⁻¹ and the on-rate (kon) amounted to 132000 M⁻¹ s⁻¹. Moreover, in experiment [2], the Kd came to 4.58 nM, the dissociation rate constant (koff) was determined as 0.000147 s⁻¹ and the on-rate (kon) was 32100 M⁻¹ s⁻¹.

B6: VRDN-02528 (antibody, V domains shown)
VH: B1 VH with H26G
VL: B1 VL with R24H
Regarding B6, in experiment [1], the Kd is 0.252 nM, the off-rate constant (koff) turned out to be 3.55e-05 s⁻¹ and the kon stood at 141000 M⁻¹ s⁻¹. Also, in experiment [2], the Kd worked out at 0.0246 nM, the koff is 1e-06 s⁻¹ and the kon is 40600 M⁻¹ s⁻¹.

B7: VRDN-02562 (antibody, V domains shown)
VH: B1 VH with H26G, D52H, A96H
VL: B1 VL
Turning to B7, in experiment [2], the Kd worked out at 1.34 nM, the off-rate constant (koff) was 0.00018 s⁻¹ and the kon is 135000 M⁻¹ s⁻¹.

B8: VRDN-02569 (antibody, V domains shown)
VH: B1 VH with H26G, A33H, D52H
VL: B1 VL with Y50H
Take B8: in experiment [2], the equilibrium dissociation constant (Kd) was 1.51 nM, the koff came to 0.000516 s⁻¹ and the kon was 342000 M⁻¹ s⁻¹.

B9: VRDN-02527 (antibody, V domains shown)
VH: B1 VH with H26G, V107H
VL: B1 VL
With B9, in experiment [1], the Kd is 0.225 nM, the koff worked out at 2.16e-05 s⁻¹ and the on-rate (kon) was found to be 95900 M⁻¹ s⁻¹. In experiment [2], the Kd was determined as 0.0258 nM, the off-rate (koff) turned out to be 1e-06 s⁻¹ and the kon is 38800 M⁻¹ s⁻¹.

B10: VRDN-02558 (antibody, V domains shown)
VH: B1 VH with H26G, A33H, D52H
VL: B1 VL
As to B10, in experiment [2], the Kd was 3.15 nM, the koff was determined as 0.00017 s⁻¹ and the on-rate (kon) was 53900 M⁻¹ s⁻¹.

B11: VRDN-02519 (antibody, V domains shown)
VH: B1 VH with H26G, G99H
VL: B1 VL
Take B11: in experiment [1], the Kd was found to be 10.5 nM, the koff was determined as 0.00366 s⁻¹ and the on-rate constant (kon) was found to be 348000 M⁻¹ s⁻¹. In experiment [2], the Kd amounted to 16.9 nM, the koff came to 0.000627 s⁻¹ and the kon turned out to be 37100 M⁻¹ s⁻¹.

B12: VRDN-02568 (antibody, V domains shown)
VH: B1 VH with H26G, A33H, D52H, M105H
VL: B1 VL
On to B12, for which, in experiment [2], the Kd was 29.9 nM, the koff amounted to 0.000129 s⁻¹ and the association rate constant (kon) came to 4320 M⁻¹ s⁻¹.

B13: VRDN-02522 (antibody, V domains shown)
VH: B1 VH with H26G, Y102H
VL: B1 VL
On to B13, for which, in experiment [1], the Kd came out at 0.37 nM, the koff turned out to be 1.73e-05 s⁻¹ and the on-rate constant (kon) turned out to be 46700 M⁻¹ s⁻¹. Further, in experiment [2], the equilibrium dissociation constant (Kd) turned out to be 0.0376 nM, the koff stood at 1e-06 s⁻¹ and the on-rate (kon) was 26600 M⁻¹ s⁻¹.

B14: VRDN-02571 (antibody, V domains shown)
VH: B1 VH with H26G, D52H, M105H
VL: B1 VL with Y50H
As for B14, in experiment [2], the dissociation constant Kd came out at 2.15 nM, the dissociation rate constant (koff) is 0.000344 s⁻¹ and the kon stood at 160000 M⁻¹ s⁻¹.

B15: VRDN-02529 (antibody, V domains shown)
VH: B1 VH with H26G
VL: B1 VL with A25H
For B15, in experiment [1], the Kd amounted to 3.8 nM, the koff is 0.000103 s⁻¹ and the kon was 27100 M⁻¹ s⁻¹. For the same molecule, in experiment [2], the Kd came to 0.0541 nM, the off-rate (koff) was 1e-06 s⁻¹ and the kon is 18500 M⁻¹ s⁻¹.

B16: VRDN-02518 (antibody, V domains shown)
VH: B1 VH with H26G, L98H
VL: B1 VL
Regarding B16, in experiment [1], the equilibrium dissociation constant (Kd) stood at 0.549 nM, the koff came out at 6.31e-05 s⁻¹ and the kon came to 115000 M⁻¹ s⁻¹. In experiment [2], the Kd stood at 0.0385 nM, the koff turned out to be 1e-06 s⁻¹ and the on-rate constant (kon) was 26000 M⁻¹ s⁻¹.

B17: VRDN-02553 (antibody, V domains shown)
VH: B1 VH with H26G, A33H
VL: B1 VL with Y50H
In the case of B17, in experiment [2], the dissociation constant (Kd) is 1.56 nM, the dissociation rate constant (koff) is 0.000534 s⁻¹ and the kon was determined as 341000 M⁻¹ s⁻¹.

B18: VRDN-02570 (antibody, V domains shown)
VH: B1 VH with H26G, A33H, M105H
VL: B1 VL with Y50H
As for B18, in experiment [2], the dissociation constant (Kd) is 1.76 nM, the koff was 0.000376 s⁻¹ and the kon amounted to 214000 M⁻¹ s⁻¹.

B19: VRDN-02520 (antibody, V domains shown)
VH: B1 VH with H26G, N100H
VL: B1 VL
With B19, in experiment [1], the equilibrium dissociation constant (Kd) was 0.0069 nM, the koff was 1e-06 s⁻¹ and the kon amounted to 145000 M⁻¹ s⁻¹. Further, in experiment [2], the Kd was determined as 0.0242 nM, the dissociation rate constant (koff) is 1e-06 s⁻¹ and the on-rate (kon) was determined as 41400 M⁻¹ s⁻¹.

B20: VRDN-02524 (antibody, V domains shown)
VH: B1 VH with H26G, G104H
VL: B1 VL
As for B20, in experiment [1], the Kd is 0.00752 nM, the koff came to 1e-06 s⁻¹ and the kon is 133000 M⁻¹ s⁻¹. In experiment [2], the Kd was 1.22 nM, the koff worked out at 4.66e-05 s⁻¹ and the kon worked out at 38300 M⁻¹ s⁻¹.

B21: VRDN-02523 (antibody, V domains shown)
VH: B1 VH with H26G, Y103H
VL: B1 VL
Take B21: in experiment [1], the dissociation constant (Kd) was found to be 0.717 nM, the koff amounted to 2.74e-05 s⁻¹ and the kon came to 38200 M⁻¹ s⁻¹. In experiment [2], the Kd amounted to 0.036 nM, the koff came to 1e-06 s⁻¹ and the kon is 27800 M⁻¹ s⁻¹.

B22: VRDN-02555 (antibody, V domains shown)
VH: B1 VH with H26G, A96H
VL: B1 VL with Y50H
For the molecule B22, in experiment [2], the Kd worked out at 0.851 nM, the off-rate constant (koff) came out at 0.000418 s⁻¹ and the on-rate (kon) was determined as 491000 M⁻¹ s⁻¹.

B23: VRDN-02517 (antibody, V domains shown)
VH: B1 VH with H26G, R97H
VL: B1 VL
On to B23, for which, in experiment [1], the dissociation constant Kd was 10.7 nM, the dissociation rate constant (koff) is 0.00264 s⁻¹ and the on-rate constant (kon) came out at 247000 M⁻¹ s⁻¹. Further, in experiment [2], the Kd was found to be 5.07 nM, the off-rate constant (koff) is 0.000265 s⁻¹ and the on-rate constant (kon) worked out at 52300 M⁻¹ s⁻¹.

B24: VRDN-02563 (antibody, V domains shown)
VH: B1 VH with H26G, D52H, G104H
VL: B1 VL
Take B24: in experiment [2], the Kd came out at 3.46 nM, the koff was 0.000353 s⁻¹ and the association rate constant (kon) came out at 102000 M⁻¹ s⁻¹.

B25: VRDN-02538 (antibody, V domains shown)
VH: B1 VH with H26G
VL: B1 VL with K49H
Take B25: in experiment [2], the dissociation constant (Kd) worked out at 0.0463 nM, the off-rate constant (koff) stood at 1e-06 s⁻¹ and the on-rate (kon) worked out at 21600 M⁻¹ s⁻¹.

B26: VRDN-02521 (antibody, V domains shown)
VH: B1 VH with H26G, F101H
VL: B1 VL
As for B26, in experiment [1], the Kd was 1.48 nM, the koff was 7.2e-05 s⁻¹ and the association rate constant (kon) is 48500 M⁻¹ s⁻¹. Further, in experiment [2], the Kd stood at 0.05 nM, the off-rate constant (koff) came to 1e-06 s⁻¹ and the kon is 20000 M⁻¹ s⁻¹.

B27: VRDN-02561 (antibody, V domains shown)
VH: B1 VH with H26G, A33H, M105H
VL: B1 VL
As for B27, in experiment [2], the Kd came out at 1.64 nM, the koff came out at 0.000539 s⁻¹ and the kon was found to be 329000 M⁻¹ s⁻¹.

B28: VRDN-02516 (antibody, V domains shown)
VH: B1 VH with H26G, A96H
VL: B1 VL
Turning to B28, in experiment [1], the Kd is 2.35 nM, the koff worked out at 0.000418 s⁻¹ and the association rate constant (kon) came out at 178000 M⁻¹ s⁻¹. In addition, in experiment [2], the Kd is 16.8 nM, the off-rate constant (koff) was determined as 0.00196 s⁻¹ and the kon is 117000 M⁻¹ s⁻¹.

The Kd is the concentration at which binding is half-saturated. As a reminder, the koff is the rate constant with which the complex falls apart. A word on the kon: it is a measure of how fast the partners come together.
